# Results reported in patent EP1892250A2.
# What was measured:
# [1] = biological target: αvβ3 integrin on human cells (human) (UniProt P06756); assay: cell-based or functional assay
# [2] = biological target: α6β1 integrin on human cells (1064SK fibroblasts, endothelial cells) (human) (UniProt P23229); assay: cell-based or functional assay
# α6β1 integrin on human cells (1064SK fibroblasts, endothelial cells) (human), sequence (P23229 24-1130, chain 1 of 2): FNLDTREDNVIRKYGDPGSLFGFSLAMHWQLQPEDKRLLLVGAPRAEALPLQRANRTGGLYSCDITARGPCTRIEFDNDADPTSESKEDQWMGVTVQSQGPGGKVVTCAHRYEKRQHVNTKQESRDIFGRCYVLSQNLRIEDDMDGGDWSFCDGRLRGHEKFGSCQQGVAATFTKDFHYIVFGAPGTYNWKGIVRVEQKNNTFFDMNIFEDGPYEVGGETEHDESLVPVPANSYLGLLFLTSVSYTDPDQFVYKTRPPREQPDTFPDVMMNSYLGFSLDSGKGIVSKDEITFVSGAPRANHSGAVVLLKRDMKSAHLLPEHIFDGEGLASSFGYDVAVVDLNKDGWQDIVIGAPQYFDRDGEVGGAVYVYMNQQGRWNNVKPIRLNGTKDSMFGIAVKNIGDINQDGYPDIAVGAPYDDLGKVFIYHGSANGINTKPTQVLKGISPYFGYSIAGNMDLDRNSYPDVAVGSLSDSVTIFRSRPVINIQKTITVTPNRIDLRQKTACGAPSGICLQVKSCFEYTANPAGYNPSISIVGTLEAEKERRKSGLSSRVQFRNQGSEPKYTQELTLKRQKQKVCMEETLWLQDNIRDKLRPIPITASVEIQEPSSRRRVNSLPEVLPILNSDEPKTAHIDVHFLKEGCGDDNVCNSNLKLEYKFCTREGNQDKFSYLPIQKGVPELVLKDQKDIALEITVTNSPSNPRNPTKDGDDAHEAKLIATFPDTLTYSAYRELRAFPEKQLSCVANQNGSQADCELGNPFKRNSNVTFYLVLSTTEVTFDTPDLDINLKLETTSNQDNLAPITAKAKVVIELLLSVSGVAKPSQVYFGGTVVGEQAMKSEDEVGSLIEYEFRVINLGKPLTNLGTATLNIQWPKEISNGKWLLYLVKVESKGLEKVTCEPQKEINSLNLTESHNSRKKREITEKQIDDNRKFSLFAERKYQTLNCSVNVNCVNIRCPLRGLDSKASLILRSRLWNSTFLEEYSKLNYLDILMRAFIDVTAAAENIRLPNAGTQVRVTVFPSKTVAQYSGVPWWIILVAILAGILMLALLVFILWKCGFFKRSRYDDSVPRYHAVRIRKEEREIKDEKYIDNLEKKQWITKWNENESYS
# α6β1 integrin on human cells (1064SK fibroblasts, endothelial cells) (human), sequence (P05556 21-798, chain 2 of 2, further chain): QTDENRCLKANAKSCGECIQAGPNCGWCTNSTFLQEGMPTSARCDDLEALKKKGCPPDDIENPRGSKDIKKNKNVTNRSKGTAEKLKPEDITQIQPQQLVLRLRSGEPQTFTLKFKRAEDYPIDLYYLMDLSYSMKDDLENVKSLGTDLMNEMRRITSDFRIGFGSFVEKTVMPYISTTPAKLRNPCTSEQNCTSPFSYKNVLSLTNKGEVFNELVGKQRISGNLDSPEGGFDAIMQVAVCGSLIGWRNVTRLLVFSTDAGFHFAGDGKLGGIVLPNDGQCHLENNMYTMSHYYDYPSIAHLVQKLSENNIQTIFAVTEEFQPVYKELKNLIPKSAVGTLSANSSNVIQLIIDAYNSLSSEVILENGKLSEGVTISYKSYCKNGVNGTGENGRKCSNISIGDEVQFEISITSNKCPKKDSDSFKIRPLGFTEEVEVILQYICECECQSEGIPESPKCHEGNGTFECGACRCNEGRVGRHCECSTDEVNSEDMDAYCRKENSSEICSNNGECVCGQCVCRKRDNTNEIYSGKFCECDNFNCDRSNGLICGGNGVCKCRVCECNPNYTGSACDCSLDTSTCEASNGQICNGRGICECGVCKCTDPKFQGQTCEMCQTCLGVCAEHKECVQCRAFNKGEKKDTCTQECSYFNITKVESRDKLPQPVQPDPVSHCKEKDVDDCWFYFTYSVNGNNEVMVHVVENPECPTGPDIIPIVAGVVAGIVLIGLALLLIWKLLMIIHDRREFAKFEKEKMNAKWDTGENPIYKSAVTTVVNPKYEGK
# αvβ3 integrin on human cells (human), sequence (P06756 31-1048, chain 1 of 2): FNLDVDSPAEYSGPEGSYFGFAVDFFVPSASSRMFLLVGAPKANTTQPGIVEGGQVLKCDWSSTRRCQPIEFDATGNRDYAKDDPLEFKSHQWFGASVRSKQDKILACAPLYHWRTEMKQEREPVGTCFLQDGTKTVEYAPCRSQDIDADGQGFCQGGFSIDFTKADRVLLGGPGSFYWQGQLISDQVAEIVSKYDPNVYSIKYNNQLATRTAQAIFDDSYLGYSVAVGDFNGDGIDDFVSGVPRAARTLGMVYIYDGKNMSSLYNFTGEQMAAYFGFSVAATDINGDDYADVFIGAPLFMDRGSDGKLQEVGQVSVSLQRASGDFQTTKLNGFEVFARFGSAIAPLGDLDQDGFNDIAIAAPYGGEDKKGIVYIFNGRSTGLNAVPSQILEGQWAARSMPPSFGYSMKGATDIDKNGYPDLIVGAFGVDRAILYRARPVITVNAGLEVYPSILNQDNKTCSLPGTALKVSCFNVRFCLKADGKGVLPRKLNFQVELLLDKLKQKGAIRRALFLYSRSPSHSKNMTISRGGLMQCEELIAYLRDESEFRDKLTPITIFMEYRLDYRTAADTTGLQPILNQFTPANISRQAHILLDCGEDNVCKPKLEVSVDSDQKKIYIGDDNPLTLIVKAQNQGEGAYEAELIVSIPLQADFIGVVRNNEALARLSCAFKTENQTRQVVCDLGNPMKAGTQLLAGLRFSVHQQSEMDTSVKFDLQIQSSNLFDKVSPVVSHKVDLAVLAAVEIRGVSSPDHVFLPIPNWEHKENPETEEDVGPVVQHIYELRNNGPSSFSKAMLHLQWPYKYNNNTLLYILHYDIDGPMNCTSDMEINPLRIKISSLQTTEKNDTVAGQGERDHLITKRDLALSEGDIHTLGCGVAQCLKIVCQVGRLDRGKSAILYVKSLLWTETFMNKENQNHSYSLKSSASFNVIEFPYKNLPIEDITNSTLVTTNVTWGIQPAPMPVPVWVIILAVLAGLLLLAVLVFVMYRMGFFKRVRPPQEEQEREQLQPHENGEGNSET
# αvβ3 integrin on human cells (human), sequence (P05106 27-788, chain 2 of 2, further chain): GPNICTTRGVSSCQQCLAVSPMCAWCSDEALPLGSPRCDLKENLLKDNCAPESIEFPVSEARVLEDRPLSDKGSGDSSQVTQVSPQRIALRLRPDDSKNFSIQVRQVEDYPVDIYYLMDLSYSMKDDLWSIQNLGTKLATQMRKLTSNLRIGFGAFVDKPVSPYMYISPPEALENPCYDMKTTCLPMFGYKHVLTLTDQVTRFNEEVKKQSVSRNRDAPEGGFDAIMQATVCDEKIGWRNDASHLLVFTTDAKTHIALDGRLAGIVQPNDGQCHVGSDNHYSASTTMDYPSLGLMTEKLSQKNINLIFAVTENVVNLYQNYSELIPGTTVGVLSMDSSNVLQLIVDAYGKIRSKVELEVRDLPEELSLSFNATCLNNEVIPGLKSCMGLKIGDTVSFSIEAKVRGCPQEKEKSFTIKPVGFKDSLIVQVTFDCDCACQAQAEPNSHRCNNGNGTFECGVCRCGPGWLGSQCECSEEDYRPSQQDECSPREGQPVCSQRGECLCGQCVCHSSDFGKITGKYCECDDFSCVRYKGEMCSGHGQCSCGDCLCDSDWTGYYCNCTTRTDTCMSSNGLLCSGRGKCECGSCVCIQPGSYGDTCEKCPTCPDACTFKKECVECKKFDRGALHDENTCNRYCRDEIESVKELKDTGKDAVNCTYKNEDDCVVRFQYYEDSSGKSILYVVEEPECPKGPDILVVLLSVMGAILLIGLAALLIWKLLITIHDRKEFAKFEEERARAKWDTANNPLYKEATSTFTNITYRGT
"HUVE cell adhesion to wild-type Cyr61 (5 µg/ml), relative binding capacity, pre-incubation: Anti-αvβ3 antibody (LM609, 40 µg/ml) [1] [%]","HUVE cell adhesion to wild-type Cyr61 (5 µg/ml), relative binding capacity, pre-incubation: EDTA (2.5 mM) [1] [%]","HUVE cell adhesion to wild-type Cyr61 (5 µg/ml), relative binding capacity, pre-incubation: None [1] [%]","HUVE cell adhesion to wild-type Cyr61 (5 µg/ml), relative binding capacity, pre-incubation: RGD peptide (1 mM) [1] [%]","1064SK fibroblast adhesion to Cyr61 (2 µg/ml), with anti-α6 antibody 20 µg/ml (A620) [2] [A620]","1064SK fibroblast adhesion to Cyr61 (2 µg/ml), with anti-β1 antibody JB1A 50 µg/ml (A620) [2] [A620]","1064SK fibroblast adhesion to Cyr61 (2 µg/ml), without anti-α6 antibody (A620) [2] [A620]","1064SK fibroblast adhesion to Cyr61 (2 µg/ml), without anti-β1 antibody JB1A (A620) [2] [A620]","1064SK fibroblast adhesion to Cyr61 (A620), antibody: None (control) [2] [A620]","1064SK fibroblast adhesion to Cyr61 (A620), antibody: anti-α1 (40 µg/ml) [2] [A620]","1064SK fibroblast adhesion to Cyr61 (A620), antibody: anti-α1 + anti-α2 + anti-α3 (40 µg/ml each) [2] [A620]","1064SK fibroblast adhesion to Cyr61 (A620), antibody: anti-α2 (40 µg/ml) [2] [A620]","1064SK fibroblast adhesion to Cyr61 (A620), antibody: anti-α3 (40 µg/ml) [2] [A620]","1064SK fibroblast adhesion to Cyr61 (A620), antibody: anti-α4 (40 µg/ml) [2] [A620]",inhibition of 1064SK fibroblast adhesion to Cyr61 by anti-α6 antibody [2] [%],inhibition of 1064SK fibroblast adhesion to Cyr61 by anti-β1 antibody JB1A [2] [%],inhibition of 1064SK fibroblast adhesion to wild-type Cyr61 by anti-α6 antibody (20 µg/ml) [2] [%],"1064SK fibroblast adhesion to laminin (5 µg/ml), with anti-α6 antibody 20 µg/ml (A620) [2] [A620]","1064SK fibroblast adhesion to laminin (5 µg/ml), without anti-α6 antibody (A620) [2] [A620]",inhibition of 1064SK fibroblast adhesion to laminin by anti-α6 antibody [2] [%],Substance
42,22,100,50,0.08,0.14,0.53,0.53,0.58,0.54,0.56,0.6,0.55,0.56,> 80,75,78,–,–,–,human Cyr61 (from UniProt O00622 25-381) (ligand)
–,–,–,–,–,–,–,–,–,–,–,–,–,–,–,–,–,0.48,0.62,22,mouse laminin (ligand)
